Assay results from US20120058499A1, “Bioluminescent Detection of Protease Activity” (priority 2010, published 2012).

Target: Ub(1-76)-aminoluciferin (human) (UniProt P0CG48)
Experiment: cell-based or functional assay

fold decrease in limit of detection against Z-RLRGG-amino-luciferin: 1000 fold
Substance: UCHL3 (ubiquitin carboxyl-terminal hydrolase isozyme L3) (from UniProt P15374 1-230) (enzyme)
